Legend:
OB-R [1] = molecular target: T1, OB-R (Homo sapiens, UniProt P48357); assay: LIF levels in conditioned medium of human endometrial cells (ELISA); assay type: cell-based; conditions: for effect on leptin-induced LIF levels in conditioned medium: leptin 3 nM plus inhibitor or control
T1 construct: After confirming via Western that the primary EEC and ESC and endometrial cell lines utilized herein had OB-R; endogenous in cells; host or cells: primary human EEC and ESC; Ishikawa (ECACC 9832301) and HES cell lines
T1 sequence (P48357 22-1165): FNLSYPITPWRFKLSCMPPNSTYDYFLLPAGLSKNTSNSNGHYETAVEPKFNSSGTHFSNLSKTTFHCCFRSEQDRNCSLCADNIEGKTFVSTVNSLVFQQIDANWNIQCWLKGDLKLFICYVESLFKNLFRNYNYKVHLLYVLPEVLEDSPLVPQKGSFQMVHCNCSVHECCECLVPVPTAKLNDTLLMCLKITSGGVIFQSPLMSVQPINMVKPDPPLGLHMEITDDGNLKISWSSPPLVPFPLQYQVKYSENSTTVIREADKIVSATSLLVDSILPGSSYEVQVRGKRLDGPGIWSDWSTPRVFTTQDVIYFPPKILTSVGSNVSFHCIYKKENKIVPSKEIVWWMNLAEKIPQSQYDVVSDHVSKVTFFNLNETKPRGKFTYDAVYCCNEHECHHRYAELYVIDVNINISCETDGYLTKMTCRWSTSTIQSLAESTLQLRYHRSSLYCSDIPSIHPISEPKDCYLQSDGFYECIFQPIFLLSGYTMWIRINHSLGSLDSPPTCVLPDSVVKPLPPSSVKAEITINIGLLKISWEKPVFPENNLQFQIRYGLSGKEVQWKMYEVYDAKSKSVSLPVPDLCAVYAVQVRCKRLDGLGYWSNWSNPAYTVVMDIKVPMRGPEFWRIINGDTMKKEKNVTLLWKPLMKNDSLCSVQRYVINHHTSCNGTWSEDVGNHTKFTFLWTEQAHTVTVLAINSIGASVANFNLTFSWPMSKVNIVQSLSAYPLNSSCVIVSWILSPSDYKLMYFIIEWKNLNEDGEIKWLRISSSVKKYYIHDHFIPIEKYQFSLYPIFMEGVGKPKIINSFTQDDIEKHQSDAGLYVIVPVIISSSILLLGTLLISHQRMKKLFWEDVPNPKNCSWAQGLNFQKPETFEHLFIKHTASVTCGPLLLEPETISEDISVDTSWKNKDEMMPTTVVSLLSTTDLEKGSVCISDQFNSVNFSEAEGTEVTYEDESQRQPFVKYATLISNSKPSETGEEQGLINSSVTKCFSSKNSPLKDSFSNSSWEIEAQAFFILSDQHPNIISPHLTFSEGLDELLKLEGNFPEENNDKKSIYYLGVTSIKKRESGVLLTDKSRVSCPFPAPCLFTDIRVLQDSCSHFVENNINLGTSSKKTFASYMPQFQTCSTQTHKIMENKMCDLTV
Experimental: (§1) Primary human endometrial cells (ESC and EEC) were cultured for 5-9 days in DMEM-F12 medium containing 5% fetal bovine serum (FBS), 5 μg/ml insulin, 1% amphopthericin B, 100 μg/ml streptomycin and 100 U/ml penicillin until they were 80% confluent. Two types of endometrial epithelial cell lines, HES (originally derived from a benign proliferative endometrium) and Ishikawa (human endometrial epithelial adenocarcinoma, ECACC 9832301, Wiltshire, England) were cultured under the same conditions described above. The cells were washed twice with 100 mM phosphate saline buffer (PBS), pH 7.2 and cultured for additional 2 days in the same medium but without FBS (basal medium). Cells were washed as described before and cultured in basal medium containing leptin (0, 3, 10 or 62 nM) or IL-1β (0.6, 3 and 10 nM).
(§2) The anti-OB-R antibody (10 and 20 μg/ml) and LPA-2, a specific inhibitor of OB-R (3, 120, 300 nM or 30 μM) were used to assess whether leptin-induced effects were regulated primarily by the OB-R. Non-specific species-matched IgGs to the OB-R antibody and a scrambled version of LPA-2 (LPA-2Sc) served as negative controls (Gonzalez and Leavis, Endocrine 21: 185-195 (2003)). Inhibitors of IL-1R were used (monoclonal antibody anti-IL-1R tl and IL-1Ra) to assess whether leptin activated IL-1 induced signaling pathways or just activated similar components responsible for LIF/LIF-R expression. Treatment with the cytokine, inhibitor or the two combined was implemented for 5, 15, 30 and 60 min, and 24 and 48 h. The cells were prepared for Western blot analysis. The conditioned media was collected, lyophilized and stored at −80° C. until analysis for LIF, IL-1β and IL-1Ra by ELISA could be performed. Duplicate wells were run for each treatment and the experiments repeated at least three times with different cell preparations.
(§3) Conditioned media from cells cultured under the experimental conditions described above were used to quantify the secretion of LIF, IL-1β and IL-1Ra by ELISA (Quantikine®, R&D Systems). The experiments were replicated three times and standards, controls, and samples were assayed in duplicate. Cytokine concentrations as determined by ELISA were within the range of the standard curve and were expressed in pg/ml/mg protein. The intra- and interassay coefficients of variation were between 5-8% and 8.5-10%, respectively. The lowest detectable concentration of each cytokine by ELISA was LIF (9 pg/ml), IL-1 (0.11 pg/ml) and IL-1Ra (15.6 pg/ml). These concentrations are similar to those reported by the manufacturer. LIF-ELISA is reported by the manufacturer to have a sensitivity of less than 8 pg/ml for both natural and recombinant human LIF and 100% specificity (no significant cross-reactivity or interference with a diversity of human and mouse cytokines and growth factors was observed). The performance characteristics for human IL-1β and IL-1Ra ELISAs reported are: 100% specificity, sensitivity 0.1 pg/ml and 14 pg/ml, respectively.

OB-R [2] = molecular target: T1, OB-R; assay: IL-1β and IL-1Ra levels in conditioned medium of human endometrial epithelial cells (ELISA); assay type: cell-based; conditions: EEC, leptin 10 nM, 24 h; for effect on leptin-induced increase in IL-1Ra levels / effect on leptin-induced increase in IL-1β levels: LPA-2 30 μM
Experimental: as §1, §2, §3

Row | Substance | effect on leptin-induced LIF levels in conditioned medium (OB-R [1]; Ishikawa cells) | effect on leptin-induced increase in IL-1Ra levels (OB-R [2]) | effect on leptin-induced increase in IL-1β levels (OB-R [2]) | LIF levels after leptin (OB-R [1]; HES cells) | LIF levels in conditioned medium after leptin (OB-R [1]; Ishikawa cells, leptin 3 nM) | LIF levels after leptin (OB-R [1]; primary EEC, 24 h, dose-dependent) | IL-1Ra levels after leptin (OB-R [2]) | IL-1β levels after leptin (OB-R [2])
1 | VAEVLNRSDLIQRISFSLDLNNSKLH [LPA-2Sc, scrambled version of LPA-2, negative control, reference compound] | not different | not affected | not affected |  |  |  |  | 
2 | leptin: human recombinant leptin (R&D Systems), OB-R ligand used as stimulus |  |  |  | No response | increased the levels of LIF | increased level of LIF | elevated levels | elevated levels
3 | SRNVIQISNDLENLRDLLHVLAFSKS [LPA-2, 26 amino acid peptide, residues 70-95 of helix III of the human leptin molecule; leptin peptide antagonist] | reduced LIF levels | abrogated | abrogated |  |  |  |  | 

Reference: patent US8058228B2, “Leptin peptide antagonists” (Boston Biomedical Research Institute, priority 2004, dated 2011)
